From US10907134B2, “Mutated genes for the catalytic protein of oplophorus luciferase and use thereof” (JNC CORPORATION, priority 2013, dated 2021) come the findings set out here.

Test [1] can be described thus: Substrate specificities of KAZ mutants (ZZ-fused, crude enzyme), bis-CTZ. The class given is biochemical. Conditions: 1 μg substrate; for Relative Luminescence Activity bis-CTZ Int.: integrated for 60 seconds; for Relative Luminescence Activity bis-CTZ Imax: maximum intensity of luminescence. As for the experimental part: (§1) The coelenterazine analogues used for substrate specificity studies were synthesized by the methods described in publications. Specifically, bis-coelenterazine was synthesized by the method described in Nakamura et al. (1997) Tetrahedron Lett. 38: 6405-6406; furimazine by the method described in Hall et al. (2012) ACS Chem. Biol. […]; and, 6h-coelenterazine, f-coelenterazine and 6h-f-coelenterazine by the methods described in Inouye et al (2013) Biochem. Biophys. Res. Commun. 437: 23-28.
(§2) DTT was added to the crude enzyme solutions obtained in EXAMPLE 17 at a final concentration of 1 mM and the mixtures were allowed to stand in an ice water for more than 5 hours in the same manner as Example 8. A luminescence reaction was started by the addition of 1 μL each of the crude enzyme solutions to 100 μL of TE containing 1 μg of coelenterazine (manufactured by JNC Corp.) or its analogues. The luminescence activities were determined using a luminometer (manufactured by Atto Inc.: AB2200) for 60 seconds, and the maximum intensity of luminescence (Imax) was shown as relative luminescence activity.

In test [2] the test system is CHO-K1 cells. Briefly: Luminescence activity of KAZ mutants expressed in animal culture cells without secretional signal peptide sequence. The class given is cell-based, Chinese hamster. Conditions: for Relative Luminescence Activity (Imax) Cell Extracts / Relative Luminescence Activity (Imax) Culture Medium: Table 12, pcDNA3- vectors without secretion signal; for Relative Luminescence Activity (Imax) Cell Extracts / Relative Luminescence Activity (Imax) Culture Medium / Luminescence activity in the cell extracts, fold higher than wild KAZ: CHO-K1, coelenterazine; for Luminescence activity compared with wild KAZ when coelenterazine was used as a substrate: summary of results; for Luminescence activity in the cell extracts, fold higher than wild KAZ: vectors without a secretion signal. As for the experimental part: Chinese hamster ovary cell line CHO-K1 was cultured in Ham's F-12 medium (manufactured by Wako Pure Chemical Industries, Ltd.) supplemented with 10% (v/v) fetal bovine serum (manufactured by Biowest Inc.). The CHO-K1 cells were plated in a 6-well plate in 1×10^5 cells/well/2 mL medium (n=2) and cultured in an incubator at 37° C. in 5% (v/v) CO2. After 24 hours, the purified recombinant plasmid was transfected to CHO-K1 cells using a FuGene HD transfection kit (manufactured by Promega Corp.), which was provided for subsequent experiment. Specifically, 1 μg of the recombinant plasmid pGL4.13 [Luc2/sv40], 0.1 μg of the internal standard vector and 3 μL of FuGene HD were added to 100 μL of the medium, which was allowed to stand at room temperature for 15 minutes. Subsequently, 100 μL of the DNA-FuGene complex was added to the cells in the 6 wells. After incubation for 48 hours, the culture medium was collected. On the other hand, the KAZ mutants expressed in the cells were washed 3 times with 3 mL of 1×PBS, then suspended in 1 mL of 1×PBS and disrupted on ice by ultrasonication, which was used as enzyme solutions of the cell-extracts of KAZ mutants.
A luminescence reaction was started by adding 5 μL of the culture media and cell extracts obtained in EXAMPLE 10 to 100 μL of 30 mM Tris-HCl (pH 7.6)-10 mM EDTA (manufactured by Wako Pure Chemical Industries, Ltd.) containing 0.5 μg of coelenterazine (manufactured by INC Corp.). The luminescence activity was determined using a luminometer (manufactured by Atto Inc.: AB2200) for 60 seconds, and the maximum intensity of luminescence (Imax) was defined as a percentage.
The gene fragments of the KAZ mutants with two amino acid substitutions and three amino acid substitutions and nanoKAZ containing the Kozak sequence were digested with restriction enzymes Asp718 and XbaI, and inserted into the Asp718-XbaI site of pcDNA3 vector (manufactured by Invitrogen Inc.) to construct the vectors of pcDNA3-KAZ-V44I, pcDNA3-KAZ-A54I, pcDNA3-KAZ-Y138I, pcDNA3-KAZ-V44I-A54I, pcDNA3-KAZ-V44I-Y138I, pcDNA3-KAZ-A54I-Y138I and pcDNA3-KAZ-V44I-A54I-Y138I.
The culture media of the KAZ mutants with two amino acid substitutions and KAZ mutants with three amino acid substitutions and the enzyme solutions of cell-extracts of KAZ mutants were obtained in the same manner as EXAMPLE 10.
Luminescence activities of the resulting enzyme solutions and enzyme solutions of the cell-extracts of KAZ mutants were determined in the same manner as EXAMPLE 11.

For test [3], the system named is CHO-K1 cells. Briefly: Luminescence activity of KAZ mutants expressed in animal culture cells with signal peptide of Gaussia luciferase for secretion. The class given is cell-based, Chinese hamster. Conditions: pcDNA3-GLsp- vectors; for Relative Luminescence Activity (%, Imax) Cell Extracts / Relative Luminescence Activity (%, Imax) Culture Medium: Table 11, CHO-K1, coelenterazine. An outline of the steps:
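CHO-K1 cells were transfected with the KAZ mutant plasmid plus an internal standard vector. After 48 h, culture medium and sonicated cell extracts were collected. 5 μL of each was added to 0.5 μg coelenterazine in 30 mM Tris-HCl pH 7.6, 10 mM EDTA, and luminescence was read for 60 s, with maximum intensity (Imax) expressed as a percentage.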

A short description of test [4]: Substrate specificities of KAZ mutants (ZZ-fused, crude enzyme), 6h-CTZ. It is filed as biochemical. The conditions noted are these: for Relative Luminescence Activity 6h-CTZ Int. / Relative Luminescence Activity 6h-CTZ Imax: 1 μg substrate; for Relative Luminescence Activity 6h-CTZ Int.: integrated for 60 seconds; for Relative Luminescence Activity 6h-CTZ Imax: maximum intensity of luminescence. As for the experimental part:
as §1, §2

Test [5] in a line: Substrate specificities of KAZ mutants (ZZ-fused, crude enzyme), f-CTZ. The conditions noted are these: 1 μg substrate; for Relative Luminescence Activity f-CTZ Int.: integrated for 60 seconds; for Relative Luminescence Activity f-CTZ Imax: maximum intensity of luminescence. It is filed as biochemical. As for the experimental part: as §1, §2

B1: KAZ-A54I-Y138I: KAZ mutant with two amino acid substitutions A54I and Y138I, SEQ ID NO: 14 (protein)
chain: FTLADFVGDWQQTAGYNQDQVLEQGGLSSLFQALGVSVTPIQKVVLSGENGLKIDIHVIIPYEGLSGFQMGLIEMIFKVVYPVDDHHFKIILHYGTLVIDGVTPNMIDYFGRPYPGIAVFDGKQITVTGTLWNGNKIIDERLINPDGSLLFRVTINGVTGWRLCENILA
For B1, in test [1], the “Relative Luminescence Activity bis-CTZ Int.” value came to 9.2 and the “Relative Luminescence Activity bis-CTZ Imax” value worked out at 9.5. Besides, in the test with CHO-K1 cells [2], the “Relative Luminescence Activity (Imax) Cell Extracts” value turned out to be 21.5; the “Relative Luminescence Activity (Imax) Culture Medium” value was found to be 0.05; the “Luminescence activity compared with wild KAZ when coelenterazine was used as a substrate” value is “markedly higher luminescence activities than wild KAZ”; the “Luminescence activity in the cell extracts, fold higher than wild KAZ” value was found to be 22 fold. In the test on CHO-K1 cells [3], the “Relative Luminescence Activity (%, Imax) Cell Extracts” value stood at 16.0% and the “Relative Luminescence Activity (%, Imax) Culture Medium” value came out at 0.03%. In addition, in test [4], the “Relative Luminescence Activity 6h-CTZ Int.” value is given as 6.1 and the “Relative Luminescence Activity 6h-CTZ Imax” value amounted to 5.8. In test [5], the “Relative Luminescence Activity f-CTZ Int.” value is 9.2 and the “Relative Luminescence Activity f-CTZ Imax” value was found to be 19.7.

B2: KAZ-V44I-A54I-Y138I: KAZ mutant with three amino acid substitutions V44I, A54I and Y138I, SEQ ID NO: 16 (protein)
chain: FTLADFVGDWQQTAGYNQDQVLEQGGLSSLFQALGVSVTPIQKIVLSGENGLKIDIHVIIPYEGLSGFQMGLIEMIFKVVYPVDDHHFKIILHYGTLVIDGVTPNMIDYFGRPYPGIAVFDGKQITVTGTLWNGNKIIDERLINPDGSLLFRVTINGVTGWRLCENILA
In the case of B2, in test [1], the “Relative Luminescence Activity bis-CTZ Int.” value is recorded as 11.9 and the “Relative Luminescence Activity bis-CTZ Imax” value is on record as 13.3. Besides, in the test with CHO-K1 cells [2], the “Relative Luminescence Activity (Imax) Cell Extracts” value is 56.0; the “Relative Luminescence Activity (Imax) Culture Medium” value is reported as 0.08; the “Luminescence activity compared with wild KAZ when coelenterazine was used as a substrate” value is “markedly higher luminescence activities than wild KAZ”; the “Luminescence activity in the cell extracts, fold higher than wild KAZ” value stood at 56 fold. Further, in the test with CHO-K1 cells [3], the “Relative Luminescence Activity (%, Imax) Cell Extracts” value is reported as 16.2% and the “Relative Luminescence Activity (%, Imax) Culture Medium” value was 1.7%. For the same molecule, in test [4], the “Luminescence activity compared with dnKAZ with 6h-coelenterazine” value was “higher luminescence activity than dnKAZ”, the “Relative Luminescence Activity 6h-CTZ Int.” value turned out to be 11.1 and the “Relative Luminescence Activity 6h-CTZ Imax” value worked out at 12.9. In addition, in test [5], the “Relative Luminescence Activity f-CTZ Int.” value was found to be 9.5 and the “Relative Luminescence Activity f-CTZ Imax” value was 43.8.

B3: KAZ: wild 19 kDa catalytic protein of Oplophorus luciferase (19kOLase), amino acid sequence SEQ ID NO: 2 (protein, listed as Oplophorus gracilirostris)
chain: FTLADFVGDWQQTAGYNQDQVLEQGGLSSLFQALGVSVTPIQKVVLSGENGLKADIHVIIPYEGLSGFQMGLIEMIFKVVYPVDDHHFKIILHYGTLVIDGVTPNMIDYFGRPYPGIAVFDGKQITVTGTLWNGNKIYDERLINPDGSLLFRVTINGVTGWRLCENILA
For B3, in test [1], the “Relative Luminescence Activity bis-CTZ Int.” value worked out at 0.9 and the “Relative Luminescence Activity bis-CTZ Imax” value came to 0.6. In the test on CHO-K1 cells [2], the “Relative Luminescence Activity (Imax) Cell Extracts” value is 1.0 and the “Relative Luminescence Activity (Imax) Culture Medium” value was found to be 0.03. Moreover, in the test on CHO-K1 cells [3] (Table 5, CHO-K1, 48 hours, 5 μL cell extracts, 0.5 μg coelenterazine), the “Relative Luminescence Activity (Imax) (%) Cell Extracts” value came to 0.1%. Also, in the test on CHO-K1 cells [3] (Table 5, CHO-K1, 48 hours, 5 μL culture medium, 0.5 μg coelenterazine), the “Relative Luminescence Activity (Imax) (%) Culture Medium” value was “less than 0.01%”. Besides, in the test with CHO-K1 cells [3], the “Relative Luminescence Activity (%, Imax) Cell Extracts” value came out at 0.3% and the “Relative Luminescence Activity (%, Imax) Culture Medium” value is reported as “less than 0.01%”. In addition, in test [4], the “Relative Luminescence Activity 6h-CTZ Int.” value was determined as 0.2 and the “Relative Luminescence Activity 6h-CTZ Imax” value was determined as 0.1. In addition, in test [5], the “Relative Luminescence Activity f-CTZ Int.” value was found to be 0.8 and the “Relative Luminescence Activity f-CTZ Imax” value amounted to 0.9.
